Experimental data from patent US20190241671A1 (Merck KGaA, published 2019).
Numbering of substitutions follows the chain as printed.

T1: CD19 antigen on Daudi lymphoma cells (human, UniProt P15391 20-556)
T1 construct: whole, on cells; also called Daudi cells
T1 sequence (looked up): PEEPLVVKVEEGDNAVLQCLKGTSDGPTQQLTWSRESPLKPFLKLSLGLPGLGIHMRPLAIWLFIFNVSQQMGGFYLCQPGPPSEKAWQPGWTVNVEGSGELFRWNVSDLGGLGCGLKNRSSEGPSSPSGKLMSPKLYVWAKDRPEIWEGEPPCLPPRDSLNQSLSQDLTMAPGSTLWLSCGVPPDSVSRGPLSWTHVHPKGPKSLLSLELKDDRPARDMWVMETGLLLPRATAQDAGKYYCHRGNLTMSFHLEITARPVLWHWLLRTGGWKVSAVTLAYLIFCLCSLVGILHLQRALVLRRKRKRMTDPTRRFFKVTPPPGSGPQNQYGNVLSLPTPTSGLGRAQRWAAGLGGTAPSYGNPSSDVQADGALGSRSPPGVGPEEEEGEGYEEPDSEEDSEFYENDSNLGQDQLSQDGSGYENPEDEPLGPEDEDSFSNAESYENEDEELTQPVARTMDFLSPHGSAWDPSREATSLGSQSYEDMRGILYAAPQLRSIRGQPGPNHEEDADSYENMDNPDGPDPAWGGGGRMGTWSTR

B1: B4 VHv6/VKv4 antibody (antibody, V domains shown)
VH: QVQLEQPGAEVVKPGASVKVSCKTSGYTFTSNWMHWVKQRPGQGLEWIGEIDPSDSYTNYNQKFDGKAKLTVDKSSSTAYMEVSDLTSEDSATYYCARGSNPYYYAMDYWGQGTSVTVSS
VL: QIVLTQSPATLSASPGEKATMTCSASSGVNYMHWYQQKPGTSPKRWIYDTDKTASGVPARFSGSGSGTSYSLTISSMEAEDAATYYCHQRGSYTFGGGTKLEIK
notes: also called 10
B2: B4 VH0/VK0 antibody (antibody, V domains shown)
VH: B1 VH with E5Q, K19R, V20L, D65K, D85S, T93V
VL: B1 VL with T10I, L11M, A19V, D51S, T53L
notes: Expressed from pdHL12 as intact heavy and light chains; also called parental B4 antibody
B3: B4 VHv5/VKv4 antibody (antibody, V domains shown)
VH: B1 VH with V12K, T24A, K38R, R40A, Q43K
VL: B1 VL
B4: B4 VHv2/VKv1 antibody (antibody, V domains shown)
VH: B1 VH with E5Q, K19R, V20L, D65K, K69E, T93V
VL: B1 VL with V3A, S7E, T10I, L11M, A19V, D51S, T53L, A54D
B5: B4 VHv1/VKv1 antibody (antibody, V domains shown)
VH: B1 VH with E5Q, K19R, V20L, K23E, G42D, D65K, K69E, T93V
VL: B1 VL with V3A, S7E, T10I, L11M, A19V, D51S, T53L, A54D
B6: B4 VHv1/VKv2 antibody (antibody, V domains shown)
VH: B1 VH with E5Q, K19R, V20L, K23E, G42D, D65K, K69E, T93V
VL: B1 VL with Q1D, A19V, D51S, T53L, A54D
B7: B4 VHv4/VKv3 antibody (antibody, V domains shown)
VH: B1 VH with R40T, Q43K, S88A
VL: B1 VL with V29A, D51S, T53L, S75E
B8: B4 VHv3/VKv3 antibody (antibody, V domains shown)
VH: B1 VH with V12K, T24A, D65K, S88A, T93V
VL: B1 VL with V29A, D51S, T53L, S75E
B9: B4 VHv2/VKv2 antibody (antibody, V domains shown)
VH: B1 VH with E5Q, K19R, V20L, D65K, K69E, T93V
VL: B1 VL with Q1D, A19V, D51S, T53L, A54D
B10: B4 VHv4/VKv4 antibody (antibody, V domains shown)
VH: B1 VH with R40T, Q43K, S88A
VL: B1 VL
B11: B4 VHv3/VKv4 antibody (antibody, V domains shown)
VH: B1 VH with V12K, T24A, D65K, S88A, T93V
VL: B1 VL

The binders below were run against T1, CD19 antigen on Daudi lymphoma cells (assay: FACS competition on Daudi cells; unlabeled antibody 800 ng/ml (8x) vs competitor biotin-B4 VH0/VK0 100 ng/ml).
Experimental: (§1) Briefly, a titration series was prepared of biotin-labeled B4 VH0/VK0 antibody pre-mixed at a final concentration of 100 ng/ml with one of the unlabeled, experimental B4 VHvx/VKvy antibodies at 800 ng/ml, 400 ng/ml, 200 ng/ml, 100 ng/ml, and 50 ng/ml in a PBS/2% serum buffer. As a control, the biotin-labeled antibody was pre-mixed with unlabeled B4 VH0/VK0 antibody at the same concentrations as above (inhibition control) or with buffer only (positive binding control). The combined antibodies were added to Daudi cells for 30 minutes at 4° C. A 1:200 dilution of FITC-labeled streptavidin was added to the cells and the samples were incubated for a further 30 minutes at 4° C. Bound amount of labeled B4 VH0/VK0 antibody was quantitated by FACS analysis, and the results were expressed as “percent inhibition,” relative to the positive binding control. The tested antibodies were B4 VH0/VK0 (C), B4 VHv1/VKv1 (1), B4 VHv2/VKv1 (2), B4 VHv1/VKv2 (3), B4 VHv2/VKv2 (4), B4 VHv3/VKv3 (5), B4 VHv4/VKv3 (6), B4 VHv3/VKv4 (7), B4 VHv4/VKv4 (8), B4 VHv5/VKv4 (9), and B4 VHv6/VKv4 (10).
In the case of B1, the “% inhibition of labeled B4 binding” value is reported as 87%. B2 was tested, and the “% inhibition of labeled B4 binding” value was 93%. For B3, the “% inhibition of labeled B4 binding” value was 90%.

The binders below were run against T1, CD19 antigen on Daudi lymphoma cells (assay: FACS competition on Daudi cells; unlabeled antibody 100 ng/ml (1x) vs competitor biotin-B4 VH0/VK0 100 ng/ml).
Experimental: as §1
With B1 the “% inhibition of labeled B4 binding” value was 60%. With B2 the “% inhibition of labeled B4 binding” value was 67%. With B3 the “% inhibition of labeled B4 binding” value was 57%.

What follows are binders tested against T1, CD19 antigen on Daudi lymphoma cells (assay: FACS competition on Daudi cells; unlabeled antibody 400 ng/ml (4x) vs competitor biotin-B4 VH0/VK0 100 ng/ml).
Experimental: as §1
For B1, the “% inhibition of labeled B4 binding” value was 80%. In the case of B2, the “% inhibition of labeled B4 binding” value is reported as 90%. For B3, the “% inhibition of labeled B4 binding” value was 87%.

Target: T1, CD19 antigen on Daudi lymphoma cells
Experiment: as above
Remark: another data set of the same source
Experimental: as §1
For B4, the “% inhibition of labeled B4 binding” value was 40%. B5 was tested, and the “% inhibition of labeled B4 binding” value was 44%. With B6 the “% inhibition of labeled B4 binding” value was 44%. With B2 the “% inhibition of labeled B4 binding” value was 56%. B7 was tested, and the “% inhibition of labeled B4 binding” value was 44%. With B8 the “% inhibition of labeled B4 binding” value was 40%. For B9, the “% inhibition of labeled B4 binding” value was 44%. With B10 the “% inhibition of labeled B4 binding” value was 48%. In the case of B11, the “% inhibition of labeled B4 binding” value is reported as 52%.

The binders below were run against T1, CD19 antigen on Daudi lymphoma cells (assay: FACS competition on Daudi cells; unlabeled antibody 200 ng/ml (2x) vs competitor biotin-B4 VH0/VK0 100 ng/ml).
Experimental: as §1
With B1 the “% inhibition of labeled B4 binding” value was 70%. With B2 the “% inhibition of labeled B4 binding” value was 83%. B3 was tested, and the “% inhibition of labeled B4 binding” value was 70%.

These binders were tested against T1, CD19 antigen on Daudi lymphoma cells (assay: FACS competition on Daudi cells; unlabeled antibody 50 ng/ml (0.5x) vs competitor biotin-B4 VH0/VK0 100 ng/ml).
Experimental: as §1
In the case of B1, the “% inhibition of labeled B4 binding” value is reported as 53%. For B2, the “% inhibition of labeled B4 binding” value was 50%. With B3 the “% inhibition of labeled B4 binding” value was 47%.

Target: T1, CD19 antigen on Daudi lymphoma cells
Experiment: FACS competition on Daudi cells; unlabeled antibody 100 ng/ml (1x) vs competitor biotin-B4 VH0/VK0 100 ng/ml
Remark: another data set of the same source
Experimental: as §1
With B4 the “% inhibition of labeled B4 binding” value was 16%. B5 was tested, and the “% inhibition of labeled B4 binding” value was 16%. For B6, the “% inhibition of labeled B4 binding” value was 20%. B2 was tested, and the “% inhibition of labeled B4 binding” value was 28%. For B7, the “% inhibition of labeled B4 binding” value was 16%. B8 was tested, and the “% inhibition of labeled B4 binding” value was 20%. With B9 the “% inhibition of labeled B4 binding” value was 16%. With B10 the “% inhibition of labeled B4 binding” value was 16%. In the case of B11, the “% inhibition of labeled B4 binding” value is reported as 20%.

Target: T1, CD19 antigen on Daudi lymphoma cells
Experiment: FACS competition on Daudi cells; unlabeled antibody 800 ng/ml (8x) vs competitor biotin-B4 VH0/VK0 100 ng/ml
Remark: another data set of the same source
Experimental: as §1
For B4, the “% inhibition of labeled B4 binding” value was 56%. In the case of B5, the “% inhibition of labeled B4 binding” value is reported as 56%. B6 was tested, and the “% inhibition of labeled B4 binding” value was 56%. For B2, the “% inhibition of labeled B4 binding” value was 68%. With B7 the “% inhibition of labeled B4 binding” value was 56%. For B8, the “% inhibition of labeled B4 binding” value was 60%. In the case of B9, the “% inhibition of labeled B4 binding” value is reported as 56%. In the case of B10, the “% inhibition of labeled B4 binding” value is reported as 60%. In the case of B11, the “% inhibition of labeled B4 binding” value is reported as 60%.

Target: T1, CD19 antigen on Daudi lymphoma cells
Experiment: FACS competition on Daudi cells; unlabeled antibody 50 ng/ml (0.5x) vs competitor biotin-B4 VH0/VK0 100 ng/ml
Remark: another data set of the same source
Experimental: as §1
In the case of B4, the “% inhibition of labeled B4 binding” value is reported as 8%. For B5, the “% inhibition of labeled B4 binding” value was 12%. In the case of B6, the “% inhibition of labeled B4 binding” value is reported as 12%. With B2 the “% inhibition of labeled B4 binding” value was 16%. For B7, the “% inhibition of labeled B4 binding” value was 12%. B8 was tested, and the “% inhibition of labeled B4 binding” value was 12%. For B9, the “% inhibition of labeled B4 binding” value was 8%. With B10 the “% inhibition of labeled B4 binding” value was 12%. For B11, the “% inhibition of labeled B4 binding” value was 12%.

Target: T1, CD19 antigen on Daudi lymphoma cells
Experiment: FACS competition on Daudi cells; unlabeled antibody 200 ng/ml (2x) vs competitor biotin-B4 VH0/VK0 100 ng/ml
Remark: another data set of the same source
Experimental: as §1
In the case of B4, the “% inhibition of labeled B4 binding” value is reported as 28%. For B5, the “% inhibition of labeled B4 binding” value was 28%. For B6, the “% inhibition of labeled B4 binding” value was 32%. In the case of B2, the “% inhibition of labeled B4 binding” value is reported as 44%. For B7, the “% inhibition of labeled B4 binding” value was 32%. With B8 the “% inhibition of labeled B4 binding” value was 36%. B9 was tested, and the “% inhibition of labeled B4 binding” value was 32%. With B10 the “% inhibition of labeled B4 binding” value was 32%. In the case of B11, the “% inhibition of labeled B4 binding” value is reported as 36%.
